Reference: patent publication US20030091564A1 (published 2003)

What was measured:
CD40/Fc fusion protein [1] = molecular target: T1, CD40/Fc fusion protein (human, UniProt P25942 21-193); test: BIAcore biosensor, CD40/Fc captured by goat anti-human IgG1 Fc; first experiment; K1 (site 1)
T1 construct: extracellular domain; also called C40/Fc; CD40Fc recombinant receptor
Description: (§1) This example illustrates the binding affinities of several different CD40-L constructs. Affinity experiments were conducted by biospecific interaction analysis (BIA) using a biosensor, an instrument that combines a biological recognition mechanism with a sensing device or transducer. An exemplary biosensor is BIAcore™, from Pharmacia Biosensor AB (Uppsala, Sweden; see Fägerstam L. G., Techniques in Protein Chemistry II, ed. J. J. Villafranca, Acad. Press, NY, 1991). BIAcore™ uses the optical phenomenon surface plasmon resonance (Kretschmann and Raether, Z. Naturforschung, Teil. A 23:2135, 1968) to monitor the interaction of two biological molecules.
(§2) The biosensor chips were coated with goat anti-human IgG₁ Fc, which was used to bind CD40/Fc (prepared as described in Example 1) to the chip. The different constructs of CD40-L were then added at increasing concentrations; the chip was regenerated between the different constructs by the addition of sodium hydroxide. Two separate experiments were performed. In the first, the binding of a dimeric human CD40-L (Example 14), trimeric human CD40-L (Example 15), dimeric murine CD40-L (prepared substantially as described in Example 14 for human CD40-L/FC) and trimeric murine CD40-L (prepared substantially as described for the human CD40-L in Example 15) were compared. In the second experiment, the binding of trimeric human CD40-L was compared to the binding of two different preparations of monomeric human CD40-L prepared as described in Example 18. The resultant data were analyzed to determine the affinity and association rate constants of the different CD40-L constructs. Results are shown in Table 12 below, and in FIGS. 18 and 19.

CD40/Fc fusion protein [2] = molecular target: T1, CD40/Fc fusion protein; test: BIAcore biosensor, CD40/Fc captured by goat anti-human IgG1 Fc; first experiment
Description: as §1, §2

CD40/Fc fusion protein [3] = molecular target: T1, CD40/Fc fusion protein; test: BIAcore biosensor, CD40/Fc captured by goat anti-human IgG1 Fc; second experiment; K2 (site 2)
Description: as §1
(§3) The biosensor chips were coated with goat anti-human IgG₁ Fc, which was used to bind CD40/Fc (prepared as described in Example 1) to the chip. The different constructs of CD40-L were then added at increasing concentrations; the chip was regenerated between the different constructs by the addition of sodium hydroxide. Two separate experiments were performed. […] The resultant data were analyzed to determine the affinity and association rate constants of the different CD40-L constructs. […]

CD40/Fc fusion protein [4] = molecular target: T1, CD40/Fc fusion protein; test: BIAcore biosensor, CD40/Fc captured by goat anti-human IgG1 Fc; second experiment
Description: as §1, §3

CD40/Fc fusion protein [5] = molecular target: T1, CD40/Fc fusion protein; test: BIAcore biosensor, CD40/Fc captured by goat anti-human IgG1 Fc; first experiment; K2 (site 2)
Description: as §1, §2

CD40/Fc fusion protein [6] = molecular target: T1, CD40/Fc fusion protein; test: BIAcore biosensor, CD40/Fc captured by goat anti-human IgG1 Fc; second experiment; K1 (site 1)
Description: as §1, §3

CD40/Fc fusion protein [7] = molecular target: T1, CD40/Fc fusion protein; test: biosensor assay substantially as in Example 22; yeast-expressed protein
Description: as §2
Mutant 18PP had only a single mutation in the molecule, which was sufficient to affect secretion in yeast. Mutant 41 had two mutations, both of which were in the isoleucine residues of the zipper domain. The mutations in the zipper improve secretion from yeast without apparent effect on activity.

CD40 on cells = CD40 on cells (UniProt P25942 21-277, limits assumed); test: cell-based or functional assay
CD40 on cells, sequence (P25942 21-277 limits assumed): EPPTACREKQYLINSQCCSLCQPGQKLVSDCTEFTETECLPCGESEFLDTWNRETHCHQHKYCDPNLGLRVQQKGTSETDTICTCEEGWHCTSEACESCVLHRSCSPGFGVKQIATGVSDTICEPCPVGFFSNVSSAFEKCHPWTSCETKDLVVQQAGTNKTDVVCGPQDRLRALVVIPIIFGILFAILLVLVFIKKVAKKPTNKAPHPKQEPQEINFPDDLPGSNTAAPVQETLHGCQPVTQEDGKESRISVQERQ

T1 sequence (P25942 other isoform, or with tags, fused parts or gaps limits assumed): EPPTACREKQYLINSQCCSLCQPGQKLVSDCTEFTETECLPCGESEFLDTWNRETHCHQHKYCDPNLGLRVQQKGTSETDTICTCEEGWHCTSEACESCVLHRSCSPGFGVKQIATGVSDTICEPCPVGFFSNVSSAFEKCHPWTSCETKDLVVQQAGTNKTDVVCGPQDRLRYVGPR

Binder	Ka (CD40/Fc fusion protein [1]) [M⁻¹]	Site 1 (mol/mol CD40/Fc) (CD40/Fc fusion protein [2])	Site 2 (mol/mol CD40/Fc) (CD40/Fc fusion protein [2])	Ka (CD40/Fc fusion protein [3]) [M⁻¹]	Site 2 (mol/mol CD40/Fc) (CD40/Fc fusion protein [4])	Ka (CD40/Fc fusion protein [5]) [M⁻¹]	Ka (CD40/Fc fusion protein [6]) [M⁻¹]	Ka (CD40/Fc fusion protein [7]) [M⁻¹]	B-cell proliferation (U/µg), Experiment 2 (CD40 on cells) [U/µg]
CD40-L/FC2 soluble CD40-L/Fc fusion protein (Fc fusion, also called dimeric human CD40-L; Human Dimer) DYKDDDDKRSCDKTHTCPPCPAPELLGGPSVFLFPPKPKDTLMISRTPEVTCVVVDVSHEDPEVKFNWYVDGVEVHNAKTKPREEQYNSTYRVVSVLTVLHQDWLNGKEYKCKVSNKALPAPIEKTISKAKGQPREPQVYTLPPSRDELTKNQVSLTCLVKGFYPSDIAVEWESNGQPENNYKTTPPVLDSDGSFFLYSKLTVDKSRWQQGNVFSCSVMHGGGGSGGGGSGGGGSSSDKIEDERNLHEDFVFMKTIQRCNTGERSLSLLNCEEIKSQFEGFVKDIMLNKEETKKENSFEMQKGDQNPQIAAHVISEASSKTTSVLQWAEKGYYTMSNNLVTLENGKQLTVKRQGLYYIYAQVTFCSNREASSQAPFIASLCLKSPGRFERILLRAANTHSSAKPCGQQSIHLGGVFELQPGASVFVNVTDPSQVSHGTGFTSFGLLKL	1.6e+11	0.013	0.049	–	–	7e+08	–	–	–
dimeric murine CD40-L (Fc fusion, not shown: a dimerising Fc or GST, the whole entry is named; also called Murine Dimer) HRRLDKVEEEVNLHEDFVFIKKLKRCNKGEGSLSLLNCEEMRRQFEDLVKDITLNKEEKKENSFEMQRGDEDPQIAAHVVSEANSNAASVLQWAKKGYYTMKSNLVMLENGKQLTVKREGLYYVYTQVTFCSNREPSSQRPFIVGLWLKPSSGSERILLKAANTHSSSQLCEQQSVHLGGVFELQAGASVFVNVTEASQVIHRVGFSSFGLLKL	–	0.05	0.14	–	–	–	–	–	–

The remaining lines, values ahead:

Ka (CD40/Fc fusion protein [1]) [M⁻¹]	Site 1 (mol/mol CD40/Fc) (CD40/Fc fusion protein [2])	Site 2 (mol/mol CD40/Fc) (CD40/Fc fusion protein [2])	Ka (CD40/Fc fusion protein [3]) [M⁻¹]	Site 2 (mol/mol CD40/Fc) (CD40/Fc fusion protein [4])	Ka (CD40/Fc fusion protein [5]) [M⁻¹]	Ka (CD40/Fc fusion protein [6]) [M⁻¹]	Ka (CD40/Fc fusion protein [7]) [M⁻¹]	B-cell proliferation (U/µg), Experiment 2 (CD40 on cells) [U/µg]	Binder
5e+09	0.04	0.68	2.6e+07	0.41	7.5e+07	6.6e+08	–	–	trimeric human CD40-L (ligand, Leader left out; also called Human Trimer; CD40-L trimer) not shown
6e+10	0.02	0.44	–	–	1.6e+08	–	–	–	trimeric murine CD40-L (ligand, also called Murine Trimer; muCD40LT) not shown
–	–	–	–	–	–	–	7.7e+07	15	wild type CD40 ligand/zipper domain fusion protein expressed in yeast (ligand, also called WT) not shown
